Experimental data published in patent US20050079503A1, “Binding domain of Siah (seven in absentia homolog) protein” (PETER MacCALLUM CANCER INSTITUTE, ST. VINCENT'S INSTITUTE …, priority 2001, published 2005).
Residue numbers refer to the chain shown, from its start. “And” between values parts separate entries of the source, which are not always exact repeats. Equal entries are not always repeated. “Also recorded” adds a separate entry of the source. No end group written: not given here. *: point of attachment. Biotin = O=C1N[C@H]2[C@H](CS[C@H]2CCCCC(=O)*)N1

Legend:
[1] = target: T1, mutant MBP-Siah1a-ZC containing a Leu211 to Arg mutation (Mus musculus, UniProt P61092, L211R); experiment: ELISA-based binding of biotinylated plectin peptide to mutant Siah substrate-binding domain; conditions: peptide captured on Neutravidin plate at 4 μg/ml; ABTS read at A405
T1 construct: made in house; the making of the mutant is not described
T1 sequence (P61092 80-282 L211R): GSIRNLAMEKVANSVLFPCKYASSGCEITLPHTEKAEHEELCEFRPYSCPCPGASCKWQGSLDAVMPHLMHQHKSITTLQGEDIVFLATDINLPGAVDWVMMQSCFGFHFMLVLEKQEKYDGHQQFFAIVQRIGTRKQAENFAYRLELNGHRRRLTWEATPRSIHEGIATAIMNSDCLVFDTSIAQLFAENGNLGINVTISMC
Experimental: (§1) Siah SBD binding to the plectin peptide (Biotin-[…]-NH2 corresponding to residues 95-117 of human plectin) was assessed by capturing biotinylated peptide on a 96-well plate coated with 0.5 μg Neutravidin per well. Peptide was captured for 30 min at room temperature at a concentration of 4 μg/ml. MBP-Siah1a-ZC fusion protein was bound to the peptide for 50 min at room temperature (or the controls of buffer alone (PBS/tween 20) or mutant MBP-Siah1a-ZC containing a Leu211 to Arg mutation). Bound protein was quantitated by rabbit anti-MBP antibody (1:300 dilution), then HRP conjugated goat-anti-rabbit antibody. Detection utilised ABTS substrate read at A405.
(§2) Following the identification of a Siah binding motif present in PHYL (RPVAXVXPXXR), a protein database search detected a number of proteins with conserved motifs, including plectin. The Applicants utilised a synthetic peptide corresponding to the sequence […] in plectin to test binding to Siah in an ELISA-based assay, where the underlined sequence corresponds to the amino acids conserved with the PHYL motif. […] Furthermore, as other Siah binding proteins are identified in this way it is predicted that the sequence of the optimal binding motif will be further refined.

[2] = target: T2, MBP-Siah1a-ZC fusion protein (native Siah substrate-binding domain) (Mus musculus, UniProt P61092); experiment: ELISA-based binding of biotinylated plectin peptide to Siah substrate-binding domain; conditions: peptide captured on Neutravidin plate at 4 μg/ml; ABTS read at A405
T2 construct: made in house; host or cells: E. coli BL21DE3
T2 sequence (P61092 80-282): T1 sequence (P61092 80-282 L211R) with R132L
Experimental: as §1, §2

Siah = target: T3, Siah (Mus musculus, UniProt P61092); experiment: Interaction studies using bacterially expressed proteins; format: binding
T3 construct: made in house; host or cells: bacteria
T3 sequence (P61092 1-282): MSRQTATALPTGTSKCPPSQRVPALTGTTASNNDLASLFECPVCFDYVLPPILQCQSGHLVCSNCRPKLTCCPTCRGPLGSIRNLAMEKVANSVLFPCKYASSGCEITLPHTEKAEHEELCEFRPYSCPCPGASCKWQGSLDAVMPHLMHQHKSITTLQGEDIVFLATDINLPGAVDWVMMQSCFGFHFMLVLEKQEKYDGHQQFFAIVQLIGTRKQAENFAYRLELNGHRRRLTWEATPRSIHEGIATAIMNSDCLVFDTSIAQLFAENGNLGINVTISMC
Source text: PHYL is known to interact and function with SINA, the Drosophila orthologue of mammalian Siah, in the targeted degradation of the transcriptional repressor tramtrack 88 (TTK88). Applicants have shown that it interacts similarly with mammalian Siah.

Siah1a SBD = target: T4, Siah1a SBD (Mus musculus, UniProt P61092); experiment: Stoichiometry of the GST-PHYL108-130 / Siah1a SBD complex by gel filtration and N-terminal sequencing; format: binding; conditions: complex isolated on Superdex 200; after five cycles of N-terminal sequencing
T4 construct: isolating a complex of GST-PHYL108-130 and Siah1a SBD by gel filtration; made in house; host or cells: E. coli BL21DE3
T4 sequence (P61092 90-282 limits assumed): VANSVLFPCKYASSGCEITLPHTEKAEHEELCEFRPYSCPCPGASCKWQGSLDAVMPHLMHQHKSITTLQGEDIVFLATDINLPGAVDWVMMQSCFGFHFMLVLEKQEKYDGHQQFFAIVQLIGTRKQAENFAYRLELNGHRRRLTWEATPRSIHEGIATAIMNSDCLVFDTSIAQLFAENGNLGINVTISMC
Source text: (§3) The stoichiometry of interaction was investigated by isolating a complex of GST-PHYL108-130 and Siah1a SBD by gel filtration on Superdex 200 and quantitating the components by N-terminal sequencing.

MBP-Siah = target: T5, MBP-Siah (Mus musculus, UniProt P61092); experiment: Competition assay: peptides as competitors of wild-type PHYL108-130 binding to Siah (96-well plate, anti-MBP detection); conditions: competition with immobilised GST-PHYL108-130 for MBP-Siah, 1 hour at room temperature; estimated from inhibition curves; read-out: IC50 (concentration at which 50% inhibition is observed)
T5 construct: made in house
T5 sequence (P61092 1-282): T3 sequence (P61092 1-282)
Experimental: Mutant peptides were used in a competition assay in which they were tested as competitors of wild-type PHYL 108-130 binding to Siah. GST-PHYL108-130 was immobilised in wells of a 96-well plate and MBP-Siah was bound for 1 hour at room temperature, in the presence of various concentrations of mutant peptides. After binding and washing, the amount of bound MBP-Siah was quantitated in a two antibody sandwich of anti-MBP antibody, followed by HRP-conjugated goat anti-rabbit antibody, using ABTS as substrate. IC50 (the concentration at which 50% inhibition is observed) values were estimated from the individual inhibition curves.
In order to test this hypothesis Applicants systematically mutated the PHYL peptide, utilising the solid phase pin technology of Mimotopes (Clayton, Victoria, Australia). A full set of peptides, with alanine substituted at each position in the peptide, was synthesised. At positions where a native alanine occurred, glycine was substituted. Mutant peptides were screened for their ability to compete with the binding between Siah and PHYL peptide, then peptides of interest were investigated further utilising surface plasmon resonance.
The initial screen of peptides yielded IC50 values of approximately 50-100 nM for wild-type peptide or peptides with ineffective mutations. […]

MBP-Siah1a = target: T6, MBP-Siah1a (Mus musculus, UniProt P61092); experiment: Surface plasmon resonance (Biacore) binding of PHYL108-130 to Siah; conditions: Biacore 2000, peptide immobilised on chip, MBP-Siah1a as analyte, read-out: affinity constant
T6 construct: made in house; host or cells: pMalC2 plasmid
T6 sequence (P61092 1-282): T3 sequence (P61092 1-282)
Source text: (§4) The binding kinetics for Siah interaction with PHYL108-130 were monitored using surface plasmon resonance on a Biacore 2000. The biotinylated PHYL108-130 peptide was captured on the chip surface by immobilised neutravidin, and MBP-Siah1a was used as analyte.
(§5) To determine binding affinities, synthetic PHYL peptide was immobilised to a C5 BIAcore chip using two different strategies (direct chemical coupling through the free amino group on Lysine113 and binding to coupled avidin via an N-terminal biotin on the peptide) and interaction was measured directly by surface plasmon resonance. This method facilitated the measurement of association and dissociation rates, and the determination of an affinity constant (FIG. 26).

[3] = target: T7, MBP-Siah1a-ZC fusion protein (mouse, UniProt P61092 80-282); experiment: ELISA: biotinylated plectin peptide captured on Neutravidin-coated plate, bound MBP fusion detected with anti-MBP and HRP antibody, ABTS, A405
T7 construct: range 80-282; ZC = zinc fingers plus C-terminus, residues 80-282 of Siah1a, fused to MBP; also called Siah SBD; not shown: linker not described
T7 sequence (looked up): T1 sequence (P61092 80-282 L211R) with R132L
Experimental: as §1

[4] = target: T8, MBP-Siah1a fusion protein (mouse, UniProt P61092 1-282, limits assumed); experiment: SPR, Biacore 2000; biotinylated peptide captured on immobilised neutravidin, MBP-Siah1a as analyte
T8 construct: not shown: linker to Siah1a not described
T8 sequence (looked up): T3 sequence (P61092 1-282)
Source text: as §4, §5

[5] = target: the molecule itself; experiment: size exclusion chromatography (self-association of the Siah1a binding domain)
GST-PHYL108-130 = target: T9, GST-PHYL108-130 (Drosophila); experiment: complex isolated by gel filtration on Superdex 200, components quantitated by N-terminal sequencing (five cycles)
T9 construct: also called PHYL peptide as a fusion protein with glutathione-S-transferase; not shown: glutathione-S-transferase (GST) fusion partner
T9 chain: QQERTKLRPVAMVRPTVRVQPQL
Source text: as §3

Molecule: Biotin-ASLQRVRRPVAMVMPARRTPHVQ-NH2 [plectin peptide]
- binding to mutant form of Siah substrate-binding domain (Leu211 to Arg) [1]: not
- binding to native Siah substrate-binding domain [2]: bound; also recorded: binds

Molecule: DCC: deleted in colorectal cancer (DCC)
- affinity of interaction with Siah (in words) (Siah): lower affinity

Molecule: GST-PHYL108-130: PHYL 23-residue peptide expressed as a fusion with glutathione-S-transferase (GST) (QQERTKLRPVAMVRPTVRVQPQL; not fully specified (N-terminus); also: GST fusion)
- average ratio of Siah binding domain to GST-PHYL108-130 residues (Siah1a SBD): 2.34±0.38

Molecule: QQERTKLRPVAMVRPTVRVQPQL [PHYL108-130]
- IC50 (MBP-Siah): 50 to 100 nM
- Kd (MBP-Siah1a): ~180 nM and 180 nM

B1: plectin peptide (Biotin-ASLQRVRRPVAMVMPARRTPHVQ-NH2) (peptide)
peptide: Biotin-ASLQRVRRPVAMVMPARRTPHVQ-NH2
SMILES: CSCC[C@H](NC(=O)[C@H](C)NC(=O)[C@@H](NC(=O)[C@@H]1CCCN1C(=O)[C@H](CCCNC(=N)N)NC(=O)[C@H](CCCNC(=N)N)NC(=O)[C@@H](NC(=O)[C@H](CCCNC(=N)N)NC(=O)[C@H](CCC(N)=O)NC(=O)[C@H](CC(C)C)NC(=O)[C@H](CO)NC(=O)[C@H](C)NC(=O)CCCC[C@@H]1SC[C@@H]2NC(=O)N[C@@H]21)C(C)C)C(C)C)C(=O)N[C@H](C(=O)N[C@@H](CCSC)C(=O)N1CCC[C@H]1C(=O)N[C@@H](C)C(=O)N[C@@H](CCCNC(=N)N)C(=O)N[C@@H](CCCNC(=N)N)C(=O)N[C@H](C(=O)N1CCC[C@H]1C(=O)N[C@@H](Cc1c[nH]cn1)C(=O)N[C@H](C(=O)N[C@@H](CCC(N)=O)C(N)=O)C(C)C)[C@@H](C)O)C(C)C
notes: also called synthetic peptide corresponding to residues 95-117 of human plectin
- binding result [3]: binds

Molecule: Biotin-QQERTKLRPVAMVRPTVRVQPQL (also called synthetic PHYL peptide) [biotinylated PHYL108-130 peptide]
- Kd [4]: 180 nM

B2: Siah1a binding domain (purified tryptic fragment) (other, mouse, UniProt P61092 90-282, looked up)
chain: T4 sequence (P61092 90-282 limits assumed)
modifications: two 2-mercaptoethanol adducts on cysteines in the purified form (21,838 Da; 21,685 Da when reduced)
notes: Dimer by size exclusion chromatography and in the crystal; Start residue must be found by locating VANSV on Siah1a; also called Siah1a SBD
- binding result [5]: binds
- average ratio of Siah binding domain to GST-PHYL108-130 residues (stoichiometry) (GST-PHYL108-130): 2.34 mol/mol

B3: Kid: kinesin-like DNA-binding protein (Kid) (protein, UniProt Q14807 1-665, looked up)
Kinesin-like protein KIF22: MAAGGSTQQRRREMAAASAAAISGAGRCRLSKIGATRRPPPARVRVAVRLRPFVDGTAGASDPPCVRGMDSCSLEIANWRNHQETLKYQFDAFYGERSTQQDIYAGSVQPILRHLLEGQNASVLAYGPTGAGKTHTMLGSPEQPGVIPRALMDLLQLTREEGAEGRPWALSVTMSYLEIYQEKVLDLLDPASGDLVIREDCRGNILIPGLSQKPISSFADFERHFLPASRNRTVGATRLNQRSSRSHAVLLVKVDQRERLAPFRQREGKLYLIDLAGSEDNRRTGNKGLRLKESGAINTSLFVLGKVVDALNQGLPRVPYRDSKLTRLLQDSLGGSAHSILIANIAPERRFYLDTVSALNFAARSKEVINRPFTNESLQPHALGPVKLSQKELLGPPEAKRARGPEEEEIGSPEPMAAPASASQKLSPLQKLSSMDPAMLERLLSLDRLLASQGSQGAPLLSTPKRERMVLMKTVEEKDLEIERLKTKQKELEAKMLAQKAEEKENHCPTMLRPLSHRTVTGAKPLKKAVVMPLQLIQEQAASPNAEIHILKNKGRKRKLESLDALEPEEKAEDCWELQISPELLAHGRQKILDLLNEGSARDLRSLQRIGPKKAQLIVGWRELHGPFSQVEDLERVEGITGKQMESFLKANILGLAAGQRCGAS
- affinity of interaction with Siah (in words) (Siah): lower affinity

B4: SIP: Siah-interacting protein (SIP) (protein, UniProt Q9HB71 2-228, looked up)
Calcyclin-binding protein: ASEELQKDLEEVKVLLEKATRKRVRDALTAEKSKIETEIKNKMQQKSQKKAELLDNEKPAAVVAPITTGYTVKISNYGWDQSDKFVKIYITLTGVHQVPTENVQVHFTERSFDLLVKNLNGKSYSMIVNNLLKPISVEGSSKKVKTDTVLILCRKKVENTRWDYLTQVEKECKEKEKPSYDTETDPSEGLMNVLKKIYEDGDDDMKRTINKAWVESREKQAKGDTEF
- affinity of interaction with Siah (in words) (Siah): lower affinity

B5: OBF-1: Oct-binding factor 1 (OBF-1) (protein, UniProt Q16633 1-256, looked up)
POU domain class …: MLWQKPTAPEQAPAPARPYQGVRVKEPVKELLRRKRGHASSGAAPAPTAVVLPHQPLATYTTVGPSCLDMEGSVSAVTEEAALCAGWLSQPTPATLQPLAPWTPYTEYVPHEAVSCPYSADMYVQPVCPSYTVVGPSSVLTYASPPLITNVTTRSSATPAVGPPLEGPEHQAPLTYFPWPQPLSTLPTSTLQYQPPAPALPGPQFVQLPISIPEPVLQDMEDPRRAASSLTIDKLLLEEEDSDAYALNHTLSVEGF
- affinity of interaction with Siah (in words) (Siah): lower affinity
